Target: purified extracellular moiety of SorCS1 (UniProt Q8WY21)
Assay: SPR; BIAcore 3000, CM5 chip; extracellular moiety of SorCS1 immobilised at about 50 fmol/mm^2; mature BDNF (50–200 nM) injected at 5 μl/min in 10 mM Hepes, 150 mM NaCl, 1.5 mM CaCl2, 1 mM EGTA, 0.005% Tween-20, pH 7.4; Langmuir 1:1 model

UniProt Q8WY21, sequence (Q8WY21 34-1099): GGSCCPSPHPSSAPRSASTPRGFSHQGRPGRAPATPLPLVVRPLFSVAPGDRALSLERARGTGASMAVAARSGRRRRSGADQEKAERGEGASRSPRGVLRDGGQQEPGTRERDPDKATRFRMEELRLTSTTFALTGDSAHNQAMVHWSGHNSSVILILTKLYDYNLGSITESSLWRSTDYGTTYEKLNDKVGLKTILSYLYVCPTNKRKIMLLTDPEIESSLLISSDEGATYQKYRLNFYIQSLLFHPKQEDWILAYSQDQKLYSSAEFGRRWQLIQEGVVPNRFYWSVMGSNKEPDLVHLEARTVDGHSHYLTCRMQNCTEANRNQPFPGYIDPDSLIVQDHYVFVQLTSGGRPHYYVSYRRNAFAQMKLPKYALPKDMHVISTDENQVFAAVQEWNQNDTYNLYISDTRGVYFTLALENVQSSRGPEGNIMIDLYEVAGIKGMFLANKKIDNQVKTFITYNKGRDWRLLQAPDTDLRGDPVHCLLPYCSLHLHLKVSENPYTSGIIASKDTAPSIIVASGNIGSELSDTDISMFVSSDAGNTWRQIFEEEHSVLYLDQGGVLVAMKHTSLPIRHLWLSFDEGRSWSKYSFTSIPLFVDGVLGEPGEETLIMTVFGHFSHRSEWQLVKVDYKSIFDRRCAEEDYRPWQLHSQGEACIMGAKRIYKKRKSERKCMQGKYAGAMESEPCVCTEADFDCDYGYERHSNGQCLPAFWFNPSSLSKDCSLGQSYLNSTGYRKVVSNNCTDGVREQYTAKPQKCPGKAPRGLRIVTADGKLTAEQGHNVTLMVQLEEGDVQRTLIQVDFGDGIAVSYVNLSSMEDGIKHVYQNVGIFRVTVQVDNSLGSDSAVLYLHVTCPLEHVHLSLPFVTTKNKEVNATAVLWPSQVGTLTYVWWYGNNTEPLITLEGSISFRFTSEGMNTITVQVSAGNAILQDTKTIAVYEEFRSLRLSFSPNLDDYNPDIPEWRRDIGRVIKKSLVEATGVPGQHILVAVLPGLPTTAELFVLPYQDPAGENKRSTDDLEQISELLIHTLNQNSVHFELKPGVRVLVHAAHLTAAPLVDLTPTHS

- Kd: 0.06 µM
Substance: mature BDNF (ligand)

From paper PMC10540051
